Measurements published in publication PMC6108936 (Cell, 2018).

Molecular target: the molecule itself
Assay: cryo-EM structure

B1: Cps25 (natural protein, Saccharomyces cerevisiae, UniProt Q03323 1-175, looked up)
chain: MNESENSPQHNEVTVPMVEDTSSNADIPMEQIQREDNKNYDKHDNECFDMNGNHNNNSDNLQFDSVPSSATKDLKNIKSVTNQNVKIEESSSTNSVIEESSEPKISKLENVNLAATVGGSQTRKYLNTNVTPHLLAGMRLIAVQQPEDPLRVLGEYLIEQSNILKSGEKESNASK
  binding result: binds
